The record followed here is paper PMC4824113.

Data set [1] concerns the target TaXPD 100C-238C C (crosslinked) (Thermoplasma acidophilum) (UniProt Q9HM14). The data set can be described thus: fluorescence anisotropy. Particulars: Anisotropy: 20 mM MES pH 6.4, 1 mM DTT, 1 mM MgCl2, 100 nM DNA, +/- 1 mM AMPPNP, temperature not stated; trapping: 20 mM Tris-HCl pH 8.3-8.5, 50 mM NaCl, 4 C ….
The target in data set [2] is TaXPD 107C-312C C (crosslinked) (Thermoplasma acidophilum) (UniProt Q9HM14). As to the kind of experiment: fluorescence anisotropy. Conditions: Anisotropy: 20 mM MES pH 6.4, 1 mM DTT, 1 mM MgCl2, 100 nM DNA, +/- 1 mM AMPPNP, temperature not stated; trapping: 20 mM Tris-HCl pH 8.3-8.5, 50 mM NaCl, 4 C …. A general note: Polarisation of emitted light reports the rotation of a fluorescent probe.

Where “and” joins values, the source holds several entries; their conditions need not be identical. Identical values can stand only once.

The term Kd denotes the concentration at which binding is half-saturated. As for “TACGACAGAGAAGAGACGAGCATTTTTGCTCGGAAGGA [3'-fluorescein hairpin DNA with 5' overhang]”, the Kd in data set [1] was 600 nM and 500 nM; in data set [2], 300 nM and 400 nM.
